The values that follow come from patent publication US20210079070A1.

Assay [1] concerns the target BG505 SOSIP.664 Env ectodomain trimer (HIV-1). The assay is described as follows: SPR, BG505 SOSIP.664 captured by mAb 2G12, Fab in the flow phase.
In another assay the target is JRFL SOSIP.664 (HIV-1). The experiment in a line: ELISA on soluble trimer, panel JRFL SOSIP.664, OD 450. In general terms: ELISA stands for enzyme-linked immunosorbent assay.
Assay [2] has as its target BG505 SOSIP.664 Env ectodomain trimer (HIV-1). The experiment in a line: ELISA on soluble trimer, panel BG505 SOSIP.664, OD 450.
The target in assay [3] is HIV-1 Env (wild type, as used in the mutagenesis mapping of FIG. 6) (HIV-1). The experiment in a line: cell-based or functional assay.
Assay [4] deals with HIV-1 Env R304E mutant (HIV-1). The assay is described as follows: cell-based or functional assay.
Assay [5] concerns the target BG505 SOSIP.664 Env ectodomain trimer (HIV-1). The assay is described as follows: ELISA, panel 'N6 70-03 Binding to BG505 SOSIP.664', HIV-1 Env mutation: WT.
A further assay concerns the target BG505 DS-SOSIP. The experiment in a line: ELISA, panels headed BG505 DS-SOSIP, OD 450.
The target in assay [6] is BG505 SOSIP.664 Env ectodomain trimer (HIV-1). The experiment in a line: ELISA, BG505 SOSIP.664 coated on the plate, HRP anti-human IgG, OD 450.

N6 Fab returned a Kd in [1] of 0.36 nM.
Regarding N6 (antibody), the EC50 (read off the curve) with JRFL SOSIP.664 (HIV-1) was 0.2 mg/L.
In [1], VRC01 Fab registered a Kd of 22.1 nM.
On to VRC01 (antibody), for which the concentration for a half-maximal effect (EC50 (read off the curve)) in the assay with JRFL SOSIP.664 (HIV-1) came out at 0.2 mg/L; in assay [2] it was 0.4 mg/L.

B1: N6 70-03 (antibody, V domains shown)
VH: RAHLVQSGTAMKKPGASVRVSCQTSGYTFTAHILFWFRQAPGRGLEWVGWIKPQYGAVNFGGGFRDRVTLTRQLSQDPDDPDWGIAYMDIRGLKPDDTAVYYCARDRSYGDSSWALDAWGQGTTVVVSA
VL: YIHVTQSPSSLSVSIGDRVTINCQTSQGVGSDLHWYQHKPGRAPKLLIHHTSSVEDGVPSRFSGSGFHTSFNLTISDLQADDIATYYCQVLQFFGRGSRLHIK
With B1, the EC50 (read off the curve) with E62K/E64K amounted to 0.1 mg/L; in the assay with JRFL SOSIP.664 (HIV-1) it was 0.2 mg/L; in assay [2], 0.2 mg/L; in assay [5], 0.2 mg/L. Further, the neutralization sensitivity (IC50), Env-pseudovirus infection of TZM-bl cells was found to be 0.007 mg/L in [3] and 0.053 mg/L in [4]. In assay [4], this molecule had a reduction in neutralization sensitivity compared to the WT virus of 8 fold.

B2: N6 70-03 Fab (Fab, V domains shown)
VH: B1 VH
VL: B1 VL
In [1], B2 displayed a dissociation constant Kd of 0.016 nM.

B3: VRC03 (antibody, V domains shown)
VH: QVQLVQSGAVIKTPGSSVKISCRASGYNFRDYSIHWVRLIPDKGFEWIGWIKPLWGAVSYARQLQGRVSMTRQLSQDPDDPDWGVAYMEFSGLTSADTAEYFCVRRGSCDYCGDFPWQYWGQGTWVVSSA
VL: EIVLTQSPGILSLSPGETATLFCKASQGGNAMTWYQKRRGQVPRLLIYDTSRRASGVPDRFVGSGSGTDFFLTINKLDREDFAVYYCQQFEFFGLGSELEVH
In the case of B3, the EC50 (read off the curve) was found to be 0.3 mg/L with BG505 DS-SOSIP and 0.8 mg/L in [6].

B4: VRC06 (antibody, V domains shown)
VH: EVQLVESGPVMRKPGSSMKISCATSGYNFRDFSIHWVRFNRRYGFEWIGWIKPMWGAVNYARQLQGRVSMSRLFSQDLYYPDRGTAYLEFSGLTSADTADYFCVRRGSSCPHCGDFHFEHWGQGTAVVVSA
VL: EIVLTQSPATLSLSPGERATLSCRASQGGNSLNWYQKRRGQTPRLLIYDTSRRASDIPEKFVGSGSGTDFSLTITKVGPEDFAVYYCQQFEFFGLGTTLEIN
Molecule B4 returned an EC50 (read off the curve) with BG505 DS-SOSIP of 0.5 mg/L.

By Kd is commonly meant the free concentration of one partner at which half of the binding sites on the other are occupied at equilibrium, for simple one-to-one binding. Read a low Kd as higher affinity. The EC50 (read off the curve) is the concentration at which the effect is half-maximal. Low values mean a more potent agent, high ones a less potent agent.
